The experiment deals with L7Ae (Pyrococcus furiosus, UniProt Q8U160 1-123). The experiment can be described thus: SEC. Background: In gel filtration, larger molecules generally elute earlier.

B1: Nop5 (L148K, V223E) (natural protein)
chain: MKAFISENVRGIYAFDENGNLIEKRYFTDKPEKVLDQLLKGEITKDLEELLNSLKEKGYDEFVFEHPELSRRAKELGFSATTEFPNIAGERLRSNPEEFLGENWFEEYYKVGVALTRMRIQEQSGARDKMVIQAIEALDDVDKVINLKVARLREWYSLHFPELDELLPKHPQYVAFVKTVGHRDNINEEVLRELGLSEEKIKKILEAKEKTMGAWMDQTDIEEVRQLAEEIDRLYQLRKKLEDYIDRAMDDVAPNLKALVGAKLAARLISLAGGLRELAMMPSSTIQVLGAEKALFRHLRTGAKPPKHGVIYQYPAINRSPWWQRGKIARALAGKLAIAARVDYFSGEYIAEELKKELEARIREIKEKYPKPPKRKREERKGKKPWKKDKKKKKKKEKPRRR
B1: the binding result was “binds”.

The values above are taken from paper PMC4836650 (RNA, 2016).
